Data taken from the RNAGym collection of RNA variant scans (doi:10.1093/nar/gkz1192).

B1: CPEB3 Ribozyme (parent)
chain: UAACAGGGGGCCACAGCAGAAGCGUUCACGUCGCAGCCCCUGUCAGAUUCUGGUGAAUCUGCGAAUUCUGCUGUAUAUCUC

Variants of: B1
Test: self-cleavage, relative activity (ratio to wild type); higher = more cleavage; in vitro, sequencing
Method in brief: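 Libraries of CPEB3 self-cleaving ribozyme mutants came from rounds of error-prone PCR and carried barcodes, which DNA sequencing matched to variants. In vitro transcription used T7 RNA polymerase at 37°C for 5 hours, with a further 15 min in DNase I before EDTA stopped the reaction; the ribozymes cleaved during both steps. The RNA was reverse transcribed with template switching and sequenced on Illumina. Relative activity is the cleaved/total read fraction of a variant divided by that of the unmutated ribozyme, averaged over three batches with at least 5 reads.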

Going from UAACAGGGGGCCACAGCGGAAGCGUUCACGUCGCAGCCCCUGUCAGAUUCUGGUGAAUCUACGAAUUCUGCUGUAUAUCUC [A18G G61A] to UAACAGGGGGCCACAGCGGAAGCGUUCACGUCGUAGCCCCUGUCAGAUUCUGGUGAAUCUGCGAAUUCUGCUGUAUAUCUC [A18G C34U], the self-cleavage falls from 0.3 to 0.15.

Compared with UAACAGGGGGCCACAGCGGAAGCGUUCACGUCGGAGCCCCUGUCAGAUUCUGGUGAAUCUGCGAAUUCUGCUGUAUAUCUC [A18G C34G], UAACAGGGGGCCACAGCGGAAGCGUUCAAGUCGCAGCCCCUGUCAGAUUCUGGUGAAUCUGCGAAUUCUGCUGUAUAUCUC [A18G C29A] is higher in self-cleavage: 0.08 for the first, 0.26 for the second.

Compared with UAACAGGGGGCCACAGCGGAAGCGUUCAUGUCGCAGCCCCUGUCAGAUUCUGGUGAAUCUGCGAAUUCUGCUGUAUAUCUC [A18G C29U], UAACAGGGGGCCACAGCGGAAGCGUUCACGUCGCACCCCCUGUCAGAUUCUGGUGAAUCUGCGAAUUCUGCUGUAUAUCUC [A18G G36C] is lower in self-cleavage: 0.42 for the first, 0.13 for the second.

Going from UAACAGGGGGCCACAGCGGAAGCGUUCACGUCGCAACCCCUGUCAGAUUCUGGUGAAUCUGCGAAUUCUGCUGUAUAUCUC [A18G G36A] to UAACAGGGGGCCACAGCGGAAGCGUUCACGUCGCAGCCCCUGUCAAAUUCUGGUGAAUCUGCGAAUUCUGCUGUAUAUCUC [A18G G46A], the self-cleavage rises from 0.31 to 0.35.

Compared with UAACAGGGGGCCACAGCGGAAGCGUUCACGUCGCAGCCCCUGUCAUAUUCUGGUGAAUCUGCGAAUUCUGCUGUAUAUCUC [A18G G46U], UAACAGGGGGCCACAGCGGAAGCGUUCACGUCGCAGCCCCUUUCAGAUUCUGGUGAAUCUGCGAAUUCUGCUGUAUAUCUC [A18G G42U] is higher in self-cleavage: 0.16 for the first, 0.27 for the second.

Compared with UAACAGGGGGCCACAGCGGAAGCGUUCACGUCGCAGCCACUGUCAGAUUCUGGUGAAUCUGCGAAUUCUGCUGUAUAUCUC [A18G C39A], UAACAGGGGGCCACAGCGGAAGCGUUCACGUCGCAGCCGCUGUCAGAUUCUGGUGAAUCUGCGAAUUCUGCUGUAUAUCUC [A18G C39G] is lower in self-cleavage: 0.47 for the first, 0.21 for the second.

Going from UAACAGGGGGCCACAGCGGAAGCGUUCACGUCGCAGCCUCUGUCAGAUUCUGGUGAAUCUGCGAAUUCUGCUGUAUAUCUC [A18G C39U] to UAACAGGGGGCCACAGCGGAAGCGUUCACGUCGCAGCCCUUGUCAGAUUCUGGUGAAUCUGCGAAUUCUGCUGUAUAUCUC [A18G C40U], the self-cleavage falls from 0.52 to 0.44.

First: UAACAGGGGGCCACAGCGGAAGCGUUCACGUCGCAGCCCAUGUCAGAUUCUGGUGAAUCUGCGAAUUCUGCUGUAUAUCUC [A18G C40A]
Second: UAACAGGGGGCCACAGCGGAAGCGUUCACGUAGCAGCCCCUGUCAGAUUCUGGUGAAUCUGCGAAUUCUGCUGUAUAUCUC [A18G C32A]
The self-cleavage of the first is lower: 0.14 for the first, 0.15 for the second.

Compared with UAACAGGGGGCCACAGCGGAAGCGUUCACGUUGCAGCCCCUGUCAGAUUCUGGUGAAUCUGCGAAUUCUGCUGUAUAUCUC [A18G C32U], UAACAGGGGGCCACAGCGGAAGCGUUCACGUGGCAGCCCCUGUCAGAUUCUGGUGAAUCUGCGAAUUCUGCUGUAUAUCUC [A18G C32G] is lower in self-cleavage: 0.2 for the first, 0.1 for the second.

Compared with UAACAGGGGGCCACAGCGGAAGCGUUGACGUCGCAGCCCCUGUCAGAUUCUGGUGAAUCUGCGAAUUCUGCUGUAUAUCUC [A18G C27G], UAACAGGGGGCCACAGCGGAAGCGUUUACGUCGCAGCCCCUGUCAGAUUCUGGUGAAUCUGCGAAUUCUGCUGUAUAUCUC [A18G C27U] is higher in self-cleavage: 0.41 for the first, 0.42 for the second.

First: UAACAGGGGGCCACAGCGGAAGCGUUCACGUCGCAGCCCCUGUCAGAUUCUGGUGAAUCUGCAAAUUCUGCUGUAUAUCUC [A18G G63A]
Second: UAACAGGGGGCCACAGCGGAAGCGUUCACAUCGCAGCCCCUGUCAGAUUCUGGUGAAUCUGCGAAUUCUGCUGUAUAUCUC [A18G G30A]
The self-cleavage of the first is higher: 0.51 for the first, 0.2 for the second.

Compared with UAACAGGGGGCCACAGCGGAAGCAUUCACGUCGCAGCCCCUGUCAGAUUCUGGUGAAUCUGCGAAUUCUGCUGUAUAUCUC [A18G G24A], UAACAGGGGGCCACAGCGGAAGCCUUCACGUCGCAGCCCCUGUCAGAUUCUGGUGAAUCUGCGAAUUCUGCUGUAUAUCUC [A18G G24C] is higher in self-cleavage: 0.15 for the first, 0.28 for the second.

First: UAACAGGGGGCCACAGCGGAAGCGUUCACGUCGCAGACCCUGUCAGAUUCUGGUGAAUCUGCGAAUUCUGCUGUAUAUCUC [A18G C37A]
Second: UAACAGGGGGCCACAGCGGAAGCGUUCACGUCGCAGCUCCUGUCAGAUUCUGGUGAAUCUGCGAAUUCUGCUGUAUAUCUC [A18G C38U]
The self-cleavage of the first is lower: 0.32 for the first, 0.73 for the second.

Compared with UAACAGGGGGCCACAGCGGAAGCGUUCACGUCGCAGCCCCUGUCAGAUUCUGGUGAAUCUGCGAAUUUUGCUGUAUAUCUC [A18G C68U], UAACAGGGGGCCACAGCGGAAGCGUUCACGUCGCAGCCCCUGUCAGAUUCUGGUGAAUCUGCGAAUUAUGCUGUAUAUCUC [A18G C68A] is lower in self-cleavage: 0.52 for the first, 0.21 for the second.

First: UAACAGGGGGCCACAGCGGAAGCGUUCACGUCGCAGCCCCUGUAAGAUUCUGGUGAAUCUGCGAAUUCUGCUGUAUAUCUC [A18G C44A]
Second: UAACAGGGGGCCACAGCGGAAGCGUUCACGUCGCAGCCCCUGUGAGAUUCUGGUGAAUCUGCGAAUUCUGCUGUAUAUCUC [A18G C44G]
The self-cleavage of the first is higher: 0.28 for the first, 0.16 for the second.

First: UAACAGGGGGCCACAGCGGAAGCGUUCACGUCGCAGCCCCUGUUAGAUUCUGGUGAAUCUGCGAAUUCUGCUGUAUAUCUC [A18G C44U]
Second: UAACAGGGGGCCACAGCGGAAGCGUUCACGUCGCAGCCCCUGUCAGAUUCUGGUGAAUCUGCGAUUUCUGCUGUAUAUCUC [A18G A65U]
The self-cleavage of the first is lower: 0.2 for the first, 0.38 for the second.

Going from UAACAGGGGGCCACAGCGGAAGCGUUCACGUCGCAGCCCCUGUCAGAUUUUGGUGAAUCUGCGAAUUCUGCUGUAUAUCUC [A18G C50U] to UAACAGGGGGCCACAGCGGAAGCGUUCACGUCGCAGCCCCUGUCAGAUUCUGGUGAAUCUGCGAAUUCUGCUGUAUUUCUC [A18G A77U], the self-cleavage rises from 0.63 to 0.78.
